Among the data in patent US20260139065A1 (Novartis, published 2026) are Kd values, retold here.

The assay has as its target T1, BAFF-R (B-cell activating factor receptor) (human, UniProt Q96RJ3 1-78, limits assumed).
T1 construct: also called BAFF receptor; BR3
T1 sequence (looked up): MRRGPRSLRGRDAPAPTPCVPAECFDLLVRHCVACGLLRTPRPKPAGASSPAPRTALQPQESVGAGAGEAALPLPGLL
As to the kind of experiment: in vitro experiments (method not given); used as a parameter of the tissue receptor occupancy model.

B1: ianalumab (antibody, human IgG1, kappa, V domains shown)
VH: QVQLQQSGPGLVKPSQTLSLTCAISGDSVSSNSAAWGWIRQSPGRGLEWLGRIYYRSKWYNSYAVSVKSRITINPDTSKNQFSLQLNSVTPEDTAVYYCARYDWVPKIGVFDSWGQGTLVTVSS
VL: DIVLTQSPATLSLSPGERATLSCRASQFISSSYLSWYQQKPGQAPRLLIYGSSSRATGVPARFSGSGSGTDFTLTISSLEPEDFAVYYCQQLYSSPMTFGQGTKVEIKR
notes: also called VAY736; anti-BAFF-R antibody
B1 returned a Kd of 0.046 nM.
